Assays:
[1] = target: Hck (UniProt P08631); assay: phosphorylation enrichment, bacterial display (enrichment ratio); higher = better substrate or ligand; peptides without Tyr show the background
[2] = target: EPHB1 (UniProt P54762); assay: as above
[3] = target: EPHB2 (UniProt P29323); assay: as above
[4] = target: FGFR3 (UniProt P22607); assay: as above
[5] = target: Jak2 (UniProt O60674); assay: as above
[6] = test system: Fer (mouse); assay: as above
[7] = target: Fyn (UniProt P06241); assay: as above
Fyn, sequence (P06241 whole entry, looked up): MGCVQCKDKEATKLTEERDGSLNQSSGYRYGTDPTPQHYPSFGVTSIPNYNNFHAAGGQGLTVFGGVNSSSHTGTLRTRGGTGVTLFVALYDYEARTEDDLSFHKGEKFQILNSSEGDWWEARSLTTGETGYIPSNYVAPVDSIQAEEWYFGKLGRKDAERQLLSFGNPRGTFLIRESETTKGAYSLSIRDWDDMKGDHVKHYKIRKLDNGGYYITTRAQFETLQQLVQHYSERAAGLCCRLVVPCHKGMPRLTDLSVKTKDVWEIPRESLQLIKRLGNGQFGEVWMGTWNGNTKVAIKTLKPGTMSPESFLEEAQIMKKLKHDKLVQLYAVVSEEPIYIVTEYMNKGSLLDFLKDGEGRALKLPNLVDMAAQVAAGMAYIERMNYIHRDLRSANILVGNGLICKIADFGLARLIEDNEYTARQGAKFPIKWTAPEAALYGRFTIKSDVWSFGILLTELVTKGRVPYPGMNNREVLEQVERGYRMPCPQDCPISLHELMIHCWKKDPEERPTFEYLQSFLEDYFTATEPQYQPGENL

[8] = target: MERTK (UniProt Q12866); assay: as above
[9] = test system: c-Abl (mouse); assay: as above
[10] = test system: c-Src; assay: as above
[11] = target: Fes (UniProt P07332); assay: as above
Fes, sequence (P07332 whole entry, looked up): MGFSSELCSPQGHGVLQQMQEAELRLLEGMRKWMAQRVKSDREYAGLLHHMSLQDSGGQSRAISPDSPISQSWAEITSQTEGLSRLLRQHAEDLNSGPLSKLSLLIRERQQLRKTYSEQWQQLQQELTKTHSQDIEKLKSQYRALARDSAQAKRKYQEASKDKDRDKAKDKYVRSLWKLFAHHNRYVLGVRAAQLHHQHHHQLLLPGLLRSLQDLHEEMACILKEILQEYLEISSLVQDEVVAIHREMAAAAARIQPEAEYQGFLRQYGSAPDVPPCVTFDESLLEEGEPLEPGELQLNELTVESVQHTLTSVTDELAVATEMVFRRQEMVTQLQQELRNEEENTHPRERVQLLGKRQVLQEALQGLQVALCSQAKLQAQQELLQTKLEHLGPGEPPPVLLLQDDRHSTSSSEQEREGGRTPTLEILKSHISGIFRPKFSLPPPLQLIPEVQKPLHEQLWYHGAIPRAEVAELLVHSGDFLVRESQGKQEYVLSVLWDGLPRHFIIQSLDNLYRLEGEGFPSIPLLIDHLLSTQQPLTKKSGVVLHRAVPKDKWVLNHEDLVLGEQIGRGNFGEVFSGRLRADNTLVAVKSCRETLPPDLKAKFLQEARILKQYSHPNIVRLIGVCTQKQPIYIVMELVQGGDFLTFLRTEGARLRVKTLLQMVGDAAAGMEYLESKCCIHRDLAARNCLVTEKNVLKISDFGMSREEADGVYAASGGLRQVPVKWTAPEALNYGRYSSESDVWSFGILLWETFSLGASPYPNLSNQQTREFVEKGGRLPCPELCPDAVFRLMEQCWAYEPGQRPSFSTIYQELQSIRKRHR

[12] = target: FGFR1 (UniProt P11362); assay: as above
FGFR1, sequence (P11362 whole entry, looked up): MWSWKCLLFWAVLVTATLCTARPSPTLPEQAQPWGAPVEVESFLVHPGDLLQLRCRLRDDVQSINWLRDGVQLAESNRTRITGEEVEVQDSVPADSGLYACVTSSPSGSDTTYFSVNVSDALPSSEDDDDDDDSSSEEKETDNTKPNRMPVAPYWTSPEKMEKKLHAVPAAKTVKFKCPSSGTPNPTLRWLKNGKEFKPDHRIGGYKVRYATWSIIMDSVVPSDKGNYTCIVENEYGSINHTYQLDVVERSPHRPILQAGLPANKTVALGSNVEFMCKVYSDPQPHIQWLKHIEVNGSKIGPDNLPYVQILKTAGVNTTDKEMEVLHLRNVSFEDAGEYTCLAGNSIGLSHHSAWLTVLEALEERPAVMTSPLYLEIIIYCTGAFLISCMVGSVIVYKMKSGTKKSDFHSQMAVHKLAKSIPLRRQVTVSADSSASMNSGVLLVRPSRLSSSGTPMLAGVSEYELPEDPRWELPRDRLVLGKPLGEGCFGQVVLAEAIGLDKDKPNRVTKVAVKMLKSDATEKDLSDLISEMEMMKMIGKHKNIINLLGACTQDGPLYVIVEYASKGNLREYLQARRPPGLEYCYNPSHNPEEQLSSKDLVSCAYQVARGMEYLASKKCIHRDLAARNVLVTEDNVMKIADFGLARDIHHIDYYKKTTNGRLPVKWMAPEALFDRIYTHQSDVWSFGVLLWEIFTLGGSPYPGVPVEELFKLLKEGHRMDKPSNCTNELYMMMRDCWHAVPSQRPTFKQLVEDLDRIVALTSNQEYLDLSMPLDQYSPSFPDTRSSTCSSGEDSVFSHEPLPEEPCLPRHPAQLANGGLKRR

[13] = test system: AncSZ; assay: as above
[14] = target: c-Src SH2; assay: SH2 binding enrichment of the phosphorylated peptide, bacterial display (enrichment ratio); higher = better substrate or ligand; peptides without Tyr show the background
[15] = target: SHP2-C SH2; assay: as above
[16] = target: Grb2 SH2 (UniProt P62993); assay: as above
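Wherever SH2 binding enrichment of the phosphorylated peptide, bacterial display is given: peptide library displayed on the E. coli surface as eCPX fusions, selected cells deep-sequenced, score is each peptide's frequency after selection divided by its frequency in the input.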
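Wherever phosphorylation enrichment, bacterial display is given: 11-residue human phosphosite peptides and single-mutation variants displayed on the E. coli surface, counted by deep sequencing, each peptide's frequency after selection divided by its frequency in the unselected input library; frequency after pTyr selection over input frequency; kinase dosed for 20-30% of maximal phosphorylation in three min.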

Hck, sequence (P08631 whole entry, looked up): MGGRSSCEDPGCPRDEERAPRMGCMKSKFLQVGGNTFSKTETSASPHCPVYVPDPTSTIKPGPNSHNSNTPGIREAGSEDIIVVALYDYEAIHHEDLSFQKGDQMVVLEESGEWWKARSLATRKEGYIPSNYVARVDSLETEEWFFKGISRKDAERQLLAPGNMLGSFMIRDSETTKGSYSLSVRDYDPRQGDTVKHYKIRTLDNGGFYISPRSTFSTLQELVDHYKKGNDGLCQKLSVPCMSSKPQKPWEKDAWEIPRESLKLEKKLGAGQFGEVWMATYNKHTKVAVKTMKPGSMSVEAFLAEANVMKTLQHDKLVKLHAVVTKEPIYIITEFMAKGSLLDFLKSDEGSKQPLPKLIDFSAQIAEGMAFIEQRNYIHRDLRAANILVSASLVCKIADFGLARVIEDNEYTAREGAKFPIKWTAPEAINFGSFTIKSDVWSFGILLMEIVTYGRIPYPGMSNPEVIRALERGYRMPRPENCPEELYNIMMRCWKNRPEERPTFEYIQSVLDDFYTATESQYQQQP
Jak2, sequence (O60674 whole entry, looked up): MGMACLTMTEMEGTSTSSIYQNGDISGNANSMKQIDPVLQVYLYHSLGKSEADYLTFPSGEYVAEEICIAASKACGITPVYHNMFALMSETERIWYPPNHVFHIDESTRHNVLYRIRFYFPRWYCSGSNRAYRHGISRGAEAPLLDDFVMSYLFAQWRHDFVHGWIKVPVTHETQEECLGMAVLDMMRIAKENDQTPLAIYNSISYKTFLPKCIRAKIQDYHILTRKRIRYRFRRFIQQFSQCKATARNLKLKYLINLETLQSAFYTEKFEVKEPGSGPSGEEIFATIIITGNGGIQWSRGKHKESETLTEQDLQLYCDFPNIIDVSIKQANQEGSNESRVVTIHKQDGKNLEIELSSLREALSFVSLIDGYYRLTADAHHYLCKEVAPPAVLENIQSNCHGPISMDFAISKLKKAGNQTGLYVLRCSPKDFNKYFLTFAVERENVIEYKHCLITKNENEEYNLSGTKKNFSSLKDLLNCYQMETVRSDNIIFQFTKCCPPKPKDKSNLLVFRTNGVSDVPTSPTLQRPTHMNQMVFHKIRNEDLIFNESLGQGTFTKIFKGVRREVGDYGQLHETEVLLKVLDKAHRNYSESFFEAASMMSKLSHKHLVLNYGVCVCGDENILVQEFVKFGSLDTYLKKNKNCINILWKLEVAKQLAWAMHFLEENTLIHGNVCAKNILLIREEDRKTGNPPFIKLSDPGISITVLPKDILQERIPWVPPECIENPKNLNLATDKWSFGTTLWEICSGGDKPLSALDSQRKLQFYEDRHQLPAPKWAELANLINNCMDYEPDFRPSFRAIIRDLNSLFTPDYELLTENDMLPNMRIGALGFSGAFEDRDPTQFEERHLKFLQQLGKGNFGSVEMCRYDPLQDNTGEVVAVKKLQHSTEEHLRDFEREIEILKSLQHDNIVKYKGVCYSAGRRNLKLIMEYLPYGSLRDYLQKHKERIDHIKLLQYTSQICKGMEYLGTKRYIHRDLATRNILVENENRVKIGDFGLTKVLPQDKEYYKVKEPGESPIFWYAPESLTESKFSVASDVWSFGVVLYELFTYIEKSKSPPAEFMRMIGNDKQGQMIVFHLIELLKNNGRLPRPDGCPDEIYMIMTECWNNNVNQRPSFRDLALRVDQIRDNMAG
EPHB2, sequence (P29323 whole entry, looked up): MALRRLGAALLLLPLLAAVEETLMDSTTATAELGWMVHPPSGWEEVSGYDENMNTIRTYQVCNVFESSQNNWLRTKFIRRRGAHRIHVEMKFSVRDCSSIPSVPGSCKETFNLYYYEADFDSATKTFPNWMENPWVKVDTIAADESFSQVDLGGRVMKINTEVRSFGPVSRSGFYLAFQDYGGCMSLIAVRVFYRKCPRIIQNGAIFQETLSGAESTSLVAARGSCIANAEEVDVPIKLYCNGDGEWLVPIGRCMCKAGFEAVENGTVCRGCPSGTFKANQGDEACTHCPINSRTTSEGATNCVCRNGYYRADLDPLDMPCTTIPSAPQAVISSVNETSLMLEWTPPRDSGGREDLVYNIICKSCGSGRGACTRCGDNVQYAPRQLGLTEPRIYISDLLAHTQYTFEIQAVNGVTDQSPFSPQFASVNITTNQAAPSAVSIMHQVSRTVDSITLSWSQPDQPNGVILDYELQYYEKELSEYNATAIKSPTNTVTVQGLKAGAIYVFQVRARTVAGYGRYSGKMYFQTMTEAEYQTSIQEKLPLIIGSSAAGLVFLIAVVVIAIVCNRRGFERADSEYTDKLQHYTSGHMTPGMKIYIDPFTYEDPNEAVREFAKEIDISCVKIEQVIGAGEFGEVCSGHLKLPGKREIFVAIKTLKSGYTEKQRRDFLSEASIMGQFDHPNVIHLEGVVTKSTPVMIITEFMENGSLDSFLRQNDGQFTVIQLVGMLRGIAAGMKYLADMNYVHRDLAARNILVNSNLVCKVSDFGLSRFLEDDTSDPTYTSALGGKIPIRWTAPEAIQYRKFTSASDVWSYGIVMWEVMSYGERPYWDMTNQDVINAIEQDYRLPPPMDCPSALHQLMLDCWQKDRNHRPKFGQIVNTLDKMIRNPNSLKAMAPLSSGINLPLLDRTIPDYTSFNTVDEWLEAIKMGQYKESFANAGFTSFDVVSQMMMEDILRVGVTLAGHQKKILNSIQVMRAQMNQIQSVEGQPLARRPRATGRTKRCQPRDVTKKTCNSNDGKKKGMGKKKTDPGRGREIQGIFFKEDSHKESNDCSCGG

| Sequence | phosphorylation enrichment [1] | phosphorylation enrichment [2] | phosphorylation enrichment [3] | phosphorylation enrichment [4] | phosphorylation enrichment [5] | phosphorylation enrichment [6] | phosphorylation enrichment [7] | phosphorylation enrichment [8] | phosphorylation enrichment [9] | phosphorylation enrichment [10] | phosphorylation enrichment [11] | phosphorylation enrichment [12] | phosphorylation enrichment [13] | SH2 binding enrichment [14] | SH2 binding enrichment [15] | SH2 binding enrichment [16] |
| --- | --- | --- | --- | --- | --- | --- | --- | --- | --- | --- | --- | --- | --- | --- | --- | --- |
| TQIGQYGNGLK [MORC2_Y100] | 0.421 | 0.29 | 0.258 | 0.345 | 0.358 | 0.387 | 0.352 | 0.316 | 0.339 | 0.272 | 0.432 | 0.434 | 0.475 | 0.509 | 0.661 | 0.991 |
| LSERGYSFVTT [ACTA2_Y200_T196S] | 0.724 | 0.94 | 0.704 | 1.46 | 1.08 | 1.06 | 0.81 | 0.986 | 0.925 | 0.693 | 1.41 | 0.955 | 1.29 | 8.52 | 5.26 | 0.806 |
| TSQSQYSSFRE [CCDC170_Y323_F324S] | 1.14 | 0.51 | 0.77 | 0.531 | 0.687 | 0.523 | 1.37 | 0.57 | 0.607 | 1.88 | 0.626 | 0.63 | 0.604 | 0.663 | 0.779 | 1.1 |
| LSGFCYRLSDQ [PDCD6_Y124_G123C] | 0.804 | 1.08 | 1.28 | 1.33 | 1.53 | 0.816 | 0.928 | 0.566 | 1.34 | 0.607 | 1.46 | 0.932 | 1.66 | 0.471 | 0.776 | 0.948 |
| LARDIYKNDYY [ROS1_Y2110] | 0.712 | 0.953 | 0.782 | 2.19 | 0.752 | 0.369 | 0.854 | 0.426 | 0.462 | 1.42 | 0.828 | 3.15 | 1.1 | 0.881 | 0.722 | 1.02 |
| DVSVVYSEVKT [FCRL4_Y493] | 5.21 | 0.631 | 0.592 | 0.751 | 1.07 | 4.14 | 4.99 | 0.834 | 1.22 | 4.13 | 1.05 | 0.775 | 0.991 | 1.11 | 11.9 | 0.789 |
| CTTIHNNYMCN [TP53_Y234_Y234N] | 0.423 | 0.44 | 0.456 | 0.452 | 0.61 | 0.383 | 0.432 | 0.379 | 0.63 | 0.385 | 0.725 | 0.423 | 0.712 | 0.914 | 1.27 | 0.987 |
| IGEGTYGVLYK [CDK2_Y15_V18L] | 7.04 | 1.55 | 2.75 | 0.632 | 0.635 | 0.808 | 8.4 | 2.63 | 0.587 | 5.6 | 1.04 | 0.416 | 0.817 | 0.381 | 0.514 | 0.635 |
| FLGRNYLETLM [DUS3L_Y610_D609N_YF] | 0.33 | 0.515 | 0.412 | 0.567 | 0.63 | 0.433 | 0.454 | 0.322 | 0.522 | 0.292 | 0.701 | 0.448 | 0.679 | 0.605 | 1.09 | 1.02 |
| EEQKRYFNAMK [SCN5A_Y1494_K1493R_YF] | 0.451 | 0.353 | 0.445 | 0.46 | 0.673 | 0.424 | 0.348 | 0.41 | 0.446 | 0.435 | 0.645 | 0.49 | 0.591 | 0.541 | 1 | 1.04 |
| PMFHSYVSLPF [PLXNA2_Y293_K289M] | 3.34 | 1.98 | 1.86 | 2.26 | 2.01 | 0.789 | 1.08 | 1.2 | 0.712 | 0.751 | 1.56 | 3.85 | 1.4 | 3.37 | 1.4 | 0.745 |
| LFDHIYTTQSD [RET_Y928] | 5.93 | 1.28 | 2 | 3.56 | 1.81 | 6.22 | 7.45 | 1.96 | 0.821 | 4.92 | 3.19 | 2.9 | 2.46 | 0.583 | 0.796 | 0.925 |
| GDKKAYVRLAP [RPL23A_Y137_E133D] | 0.482 | 0.523 | 0.435 | 0.497 | 0.732 | 0.411 | 0.43 | 0.638 | 0.519 | 0.449 | 0.58 | 0.535 | 0.603 | 0.54 | 0.757 | 0.831 |
| FQEPVYSVAFS [TBL1X_Y509_H504Y_YF] | 10.2 | 18.1 | 24.6 | 3.49 | 0.925 | 16.6 | 11.8 | 11.7 | 27.4 | 7.54 | 3.7 | 3.68 | 4.02 | 0.469 | 0.926 | 0.812 |
